Laboratory results reported in patent US7888090B2, “Mutants of O6-alkylguanine-DNA alkyltransferase” (Ecole Polytechnique Federale de Lausanne, priority 2004, dated 2011).

How the values were obtained:
[1] = Reaction of two AGT variants in one sample with CPTG and BG-Bt; assay type: biochemical
Protocol: FIG. 2: Western blot of the reaction of wild type hAGT (GST-hAGT fusion protein) and AGTM with the two substrates N^9-cyclopentyl-O^6-bromophenyl-guanine (CPTG) and biotinylated O^6-benzylguanine (BG-Bt, substance 3a of Juillerat et al. 2003) as described in Example 7. BG-Bt is present in all samples at 5 μM. Detection with neutravidin-peroxidase conjugate and luminescent peroxidase substrate detecting any AGT reacted with BG-Bt. Even under simultaneous incubation with identical concentrations of CPTG and BG-Bt only about 5% of GST-hAGT reacts with substrate BG-Bt.
Within the experiment two tags with different size for the two AGT proteins are used: The His-tagged AGTM (˜20 kDa) and GST-hAGT (cloned and prepared as described in Example 1, but starting with the wild type hAGT gene, ˜48 kDa) are diluted to 0.2 μM and 1.2 μM final concentration, respectively, in reaction buffer containing 50 mM HEPES, 1 mM DTT, 200 mg/mL BSA (pH 7.3). The sample is incubated with a mixture of substrates N^9-cyclopentyl-O^6-bromophenyl-guanine (CPTG; 0, 5 and 10 μM final concentrations) and biotinylated O^6-benzylguanine (BG-Bt, 5 μM final concentration) for 30 minutes. The reaction is quenched by addition of SDS-Laemmli buffer and subjected to Western blotting analysis (Example 1). As the two AGT variants have different masses, the two proteins can be separated on an acrylamide gel and analyzed independently. […] At the same concentration (both substrates at 5 μM final concentration), 95% of GST-hAGT reacts with CPTG, versus only 5% of His-tagged AGTM.

[2] = Stability after reaction with BG-FL; assay type: physicochemical; conditions: over 7 days
Protocol: Stability before reaction is determined for the mutant AGT or for a mutant AGT fusion protein by incubating purified samples in buffered aqueous solution for up to two weeks at 4° C. and up to six months at −20° C. At several time points, aliquots are taken and concentration of reactive AGT is estimated as described by Juillerat et al., Chem Biol 10:313-317, 2003. Stability for wild type AGT and the AGT mutant after reaction with a labelled substrate and after subsequent separation from unreacted substrate is determined by quantifying the concentration of the label in the soluble fraction over up to two weeks at 4° C. and up to three months at −20° C.
Stability after reaction: The vector pBAD/H is A (Invitrogen) is modified by cloning synthetic oligonucleotides (SEQ ID NO:29 and SEQ ID NO:30) between the NcoI and HindIII sites to include a 12×His-tag and SbfI and AscI cloning sites. The gene of AGTM is amplified with primers SEQ ID NO:31 and SEQ ID NO:32 and cloned between the SbfI/AscI sites into this vector. Wild type AGT and mutant AGT (Lys125Ala, Ala127Thr, Arg128Ala, Asn157Gly, Ser159Glu) are amplified with primers SEQ ID NO:31 and SEQ ID NO:33 and cloned into this vector. Protein expression is carried out in E. coli strain Top 10. An exponentially growing culture is induced with 0.2% arabinose, and the expression is carried out for 16 hours at 28° C. The cells are lysed by adding buffer to 10 ml/g containing 0.5 M NaCl, 80 mM imidazole, 1% Triton, 250 µM PMSF, 1 mM […]-mercaptoethanol, 5 mg/ml lysozyme, 20 µg/ml DNase and stirring for 45 min. […]
The AGT proteins at 10 µM) are quantitatively reacted with fluorescein-modified O^6-benzyl-guanine (substance 5 of Juillerat et al, Chem Biol 10:313-317, 2003, BG-FL, 20 µM) and purified over a size exclusion column (Econopac 10 DG, Bio-Rad) and incubated for 7 days. […] The fluorescence of the supernatant is measured with a Victor2 fluorescence plate reader (Perkin Elmer, excitation/emission at 485/535 nm).

[3] = BG-Cy3 activity assay (reaction rate of AGT mutants); assay type: biochemical
Protocol: Reactivity against DNA-based substrates measured with a BG-Cy3 assay: BG-Cy3 is prepared by reacting the previously described O^6-(4-aminomethyl-benzyl)guanine (Keppler et al., NatureBiotechnol. 21:86-89, 2003) with the commercially available N-hydroxysuccinimide ester of Cy3, (Cy3-NHS, Amersham). The coupling reaction is performed at ambient temperature in N,N-dimethylformamide in the presence of 1 eq. of triethylamine. The BG-Cy3 conjugate is purified by reversed-phase HPLC on a C18-column by using linear gradients from 0.1% trifluoroacetic acid to acetonitrile. After solvent evaporation BG-Cy3 is dissolved in dimethyl sulfoxide and stored at −20° C. For measuring the reactivity with DNA-based substrates, a reaction mixture containing different concentrations (0 to 5 µM) of oligonucleotide SEQ ID NO:2 (modified in position 14), GST-AGT fusion protein at 0.2 µM and BG-Cy3 at […] in reaction buffer (50 mM HEPES, pH 7.2, 1 mM DTT, 200 mg/ml BSA) is incubated in microtiterplates. Fluorescence of the Cy3 derivative (excitation 519 nm, emission at 572 nm) is measured on a Spectramax Gemini plate reader (Molecular Devices).
The amplified products are cloned in fusion to the g3 gene of filamentous phage in the vector pAK100 via SfiI restriction sites. The resulting gene libraries are used for phage display as described under Example 4. The mutants of the libraries are selected with 5 to 50 nM of BG-Bt for 10 min. Selected mutants are subcloned into pGEX using the primers SEQ ID NO:3 and SEQ ID NO:13. The reaction rate of mutant AGTs is determined as described in Example 6, Reactivity against DNA-based substrates (BG-Cy3 assay).
For the activity assay purified GST fusion proteins were used for mutants marked with “p.” (prepared as described under Example 1); periplasmic extracts were used for mutants marked with “x.” (prepared as described under Example 2).

B1: Wild type hAGT: wild type human O^6-alkylguanine-DNA alkyltransferase (SEQ ID NO:1); GST-hAGT is its GST fusion (protein, listed as Homo sapiens)
chain: MDKDCEMKRTTLDSPLGKLELSGCEQGLHEIKLLGKGTSAADAVEVPAPAAVLGGPEPLMQCTAWLNAYFHQPEAIEEFPVPALHHPVFQQESFTRQVLWKLLKVVKFGEVISYQQLAALAGNPKAARAVGGAMRGNPVPILIPCHRVVCSSGAVGNYSGGLAVKEWLLAHEGHRLGKPGLGGSSGLAGAWLKGAGATSGSPPAGRN
fraction of protein reacting with CPTG ([1]; CPTG and BG-Bt both at 5 μM, 30 minutes): 95% | fraction of protein reacting with BG-Bt ([1]; simultaneous incubation with identical concentrations of CPTG and BG-Bt): about 5% | loss of soluble fluorescent protein [2]: about 60% | kobs ([3]; BG-Cy3 activity assay): 116 M⁻¹ s⁻¹ | Relative reaction rate ([3]; divided by value for wild type hAGT, purified GST fusion proteins (p.)): 1
